Test results published in US10081665B2, “Peptides and combination of peptides for use in immunotherapy against various tumors” (immatics biotechnologies GmbH, priority 2015, dated 2018).

Biological target: HLA-A*02:01 (Homo sapiens, UniProt P04439, D140Y/D185E/D98H/E176V/E277Q/G131W/G231S/I119V/I121R/I166T/I218V/L300P/L318F/N151K/N90K/P208A/P217A/Q86G/Q94H/R138H/R169H/T345S)
Test: MHC binding assay (UV-ligand exchange, beta2m ELISA)
Conditions: binding to HLA-A*02:01, β2m ELISA
Source text: Candidate peptides for T cell based therapies according to the present invention were further tested for their MHC binding capacity (affinity). The individual peptide-MHC complexes were produced by UV-ligand exchange, where a UV-sensitive peptide is cleaved upon UV-irradiation, and exchanged with the peptide of interest as analyzed. Only peptide candidates that can effectively bind and stabilize the peptide-receptive MHC molecules prevent dissociation of the MHC complexes. To determine the yield of the exchange reaction, an ELISA was performed based on the detection of the light chain (β2m) of stabilized MHC complexes. The assay was performed as generally described in Rodenko et al. (Rodenko et al., 2006).
96 well MAXISorp plates (NUNC) were coated over night with 2 ug/ml streptavidin in PBS at room temperature, washed 4× and blocked for 1 h at 37° C. in 2% BSA containing blocking buffer. Refolded HLA-A*02:01/MLA-001 monomers served as standards, covering the range of 15-500 ng/ml. Peptide-MHC monomers of the UV-exchange reaction were diluted 100 fold in blocking buffer. Samples were incubated for 1 h at 37° C., washed four times, incubated with 2 ug/ml HRP conjugated anti-82m for 1 h at 37° C., washed again and detected with TMB solution that is stopped with […]. Absorption was measured at 450 nm. Candidate peptides that show a high exchange yield (preferably higher than 50%, most preferred higher than 75%) are generally preferred for a generation and production of antibodies or fragments thereof, and/or T cell receptors or fragments thereof, as they show sufficient avidity to the MHC molecules and prevent dissociation of the MHC complexes.

Substance | Peptide exchange (MHC class I binding score, peptide exchange yield)
158 (YLDPLWHQL; listed as Homo sapiens) [compound 158] | +++ (≥50 = +++)
19 (KVFELDLVTL; listed as Homo sapiens) [compound 19] | ++ (≥20% = ++)
71 (HMSGKLTNV; listed as Homo sapiens) [compound 71] | ++ (≥20% = ++)
141 (NIDINNNEL; listed as Homo sapiens) [compound 141] | ++ (≥20% = ++)
115 (ILHGEVNKV; listed as Homo sapiens) [compound 115] | ++ (≥20% = ++)
92 (RLFEEVLGV; listed as Homo sapiens) [compound 92] | ++++ (≥75% = ++++)
185 (TLYQGLPAEV; listed as Homo sapiens) [compound 185] | ++ (≥20% = ++)
61 (ALYPKEITL; listed as Homo sapiens) [compound 61] | +++ (≥50 = +++)
45 (FLPVSVVYV; listed as Homo sapiens) [compound 45] | +++ (≥50 = +++)
162 (GLLGNLLTSL; listed as Homo sapiens) [compound 162] | +++ (≥50 = +++)
30 (IITEVITRL; listed as Homo sapiens) [compound 30] | +++ (≥50 = +++)
128 (SILTNISEV; listed as Homo sapiens) [compound 128] | ++ (≥20% = ++)
10 (QLIEKNWLL; listed as Homo sapiens) [compound 10] | +++ (≥50 = +++)
86 (SLFSNIESV; listed as Homo sapiens) [compound 86] | +++ (≥50 = +++)
170 (FIAAVVEKV; listed as Homo sapiens) [compound 170] | ++ (≥20% = ++)
123 (QTAPEEAFIKL; listed as Homo sapiens) [compound 123] | + (≥10% = +)
276 (RMPTVLQCV; listed as Homo sapiens) [compound 276] | +++ (≥50 = +++)
286 (FLTEMVHFI; listed as Homo sapiens) [compound 286] | +++ (≥50 = +++)
26 (VLDGKVAVV; listed as Homo sapiens) [compound 26] | +++ (≥50 = +++)
96 (ALDTTRHEL; listed as Homo sapiens) [compound 96] | ++ (≥20% = ++)
265 (FLLDKPQDLSI; listed as Homo sapiens) [compound 265] | +++ (≥50 = +++)

Substance | Peptide exchange (MHC class I binding score, peptide exchange yield)
192 (TLLPSSGLVTL; listed as Homo sapiens) [compound 192] | ++ (≥20% = ++)
168 (VIFEGEPMYL; listed as Homo sapiens) [compound 168] | +++ (≥50 = +++)
103 (YLADTVQKL; listed as Homo sapiens) [compound 103] | ++ (≥20% = ++)
199 (SVADLAHVL; listed as Homo sapiens) [compound 199] | ++ (≥20% = ++)
48 (KISDFGLATV; listed as Homo sapiens) [compound 48] | +++ (≥50 = +++)
169 (ALADLSVAV; listed as Homo sapiens) [compound 169] | +++ (≥50 = +++)
262 (LLLEAVWHL; listed as Homo sapiens) [compound 262] | +++ (≥50 = +++)
164 (MLIIRVPSV; listed as Homo sapiens) [compound 164] | +++ (≥50 = +++)
174 (ALYSGDLHAA; listed as Homo sapiens) [compound 174] | ++ (≥20% = ++)
36 (TVLQELINV; listed as Homo sapiens) [compound 36] | +++ (≥50 = +++)
239 (VIIKGLEEITV; listed as Homo sapiens) [compound 239] | +++ (≥50 = +++)
98 (FVQEKIPEL; listed as Homo sapiens) [compound 98] | +++ (≥50 = +++)
244 (NVAEIVIHI; listed as Homo sapiens) [compound 244] | +++ (≥50 = +++)
132 (ALLNNVIEV; listed as Homo sapiens) [compound 132] | +++ (≥50 = +++)
208 (HLNNDRNPL; listed as Homo sapiens) [compound 208] | ++ (≥20% = ++)
279 (VLMDEGAVLTL; listed as Homo sapiens) [compound 279] | ++ (≥20% = ++)
216 (ALSTVTPRI; listed as Homo sapiens) [compound 216] | ++ (≥20% = ++)
131 (SLYPHFTLL; listed as Homo sapiens) [compound 131] | +++ (≥50 = +++)
28 (IKVTDPQLLEL; listed as Homo sapiens) [compound 28] | ++ (≥20% = ++)
16 (SLADLSLLL; listed as Homo sapiens) [compound 16] | +++ (≥50 = +++)
143 (MLWESIMRV; listed as Homo sapiens) [compound 143] | +++ (≥50 = +++)

Substance | Peptide exchange (MHC class I binding score, peptide exchange yield)
76 (FTAEFLEKV; listed as Homo sapiens) [compound 76] | +++ (≥50 = +++)
283 (ALSELLQQV; listed as Homo sapiens) [compound 283] | +++ (≥50 = +++)
245 (ALLEEEEGV; listed as Homo sapiens) [compound 245] | ++ (≥20% = ++)
249 (YLYQILQGI; listed as Homo sapiens) [compound 249] | +++ (≥50 = +++)
182 (GLQDGFQITV; listed as Homo sapiens) [compound 182] | +++ (≥50 = +++)
31 (GLLETTGLLAT; listed as Homo sapiens) [compound 31] | +++ (≥50 = +++)
212 (MTLSEIHAV; listed as Homo sapiens) [compound 212] | ++ (≥20% = ++)
84 (FLLEREQLL; listed as Homo sapiens) [compound 84] | ++++ (≥75% = ++++)
176 (VQSGLRILL; listed as Homo sapiens) [compound 176] | ++ (≥20% = ++)
51 (LDSEALLTL; listed as Homo sapiens) [compound 51] | ++ (≥20% = ++)
278 (VLEDKVLSV; listed as Homo sapiens) [compound 278] | +++ (≥50 = +++)
218 (SLTGANITV; listed as Homo sapiens) [compound 218] | +++ (≥50 = +++)
159 (QLGPVPVTI; listed as Homo sapiens) [compound 159] | +++ (≥50 = +++)
219 (GVVPTIQKV; listed as Homo sapiens) [compound 219] | ++ (≥20% = ++)
148 (YLILSSHQL; listed as Homo sapiens) [compound 148] | +++ (≥50 = +++)
42 (KQMSISTGL; listed as Homo sapiens) [compound 42] | ++ (≥20% = ++)
138 (GIINKLVTV; listed as Homo sapiens) [compound 138] | ++ (≥20% = ++)
178 (SLVSWQLLL; listed as Homo sapiens) [compound 178] | ++++ (≥75% = ++++)
211 (LLTTVLINA; listed as Homo sapiens) [compound 211] | +++ (≥50 = +++)
79 (TVLEEIGNRV; listed as Homo sapiens) [compound 79] | ++ (≥20% = ++)
